Measurements: paper PMC7356358, “Comparative Characterization of Plasmodium falciparum Hsp70-1 Relative to E. coli DnaK Reveals the Functional Specificity of the Parasite Chaperone” (Biomolecules, 2020)
Where “and” joins values, the source holds several entries; their conditions need not be identical. Equal values may be shown once.

B1: peptide NRNNTG (peptide)
peptide: NRNNTG
notes: NRLLTG with the middle residues substituted by asparagine; source: synthetic peptide
B2: peptide GFRVVLMYRF (peptide)
peptide: GFRVVLMYRF
notes: canonical model Hsp70 peptide substrate; source: synthetic peptide
B3: Plasmodium falciparum Hsp70-1 (natural protein)
chain: not shown
notes: Plasmodium falciparum Hsp70-1, cytosolic Hsp70; PlasmoDB PF3D7_0818900; expressed from pQE30/PfHsp70-1; also called PfHsp70-1; PfHsp70
B4: Plasmodium falciparum Hsp40 (natural protein, UniProt Q8IL88 1-424, looked up)
chain: MFFSSGFPFDSMGGQQARRKREVNNNKFYEVLNLKKNCTTDEVKKAYRKLAIIHHPDKGGDPEKFKEISRAYEVLSDEEKRKLYDEYGEEGLENGEQPADATDLFDFILNAGKGKKKRGEDIVSEVKVTLEQLYNGATKKLAISKDIICTNCEGHGGPKDAKVDCKQCNGRGTKTYMRYHSSVLHQTEVTCNTCRGKGKIFNEKDKCANCKGMCVLKTRKIIEVYIPKGAPNKHKIVFNGEADEKPNVITGNLVVILNEKQHPVFRREGIDLFMNYKISLYESLTGFVAEVTHLDERKILVNCTNSGFIRHGDIREVLDEGMPTYKDPFKKGNLYITFEVEYPMDLIITNENKEVLKILKKQNEVEKKYDLENSELEVVSCSPVDKEYIKVRVTKQQQQQQQEAYDDEDHQPEMEGGRVACAQQ
notes: P. falciparum type I Hsp40, cytosolic co-chaperone of PfHsp70-1; PlasmoDB PF3D7_1437900; codon harmonized gene cloned into pQE30 (BamHI, HindIII); also called PfHsp40
B5: peptide ALLLMYRR (peptide)
peptide: ALLLMYRR
notes: as for B2
B6: peptide NRLLTG (peptide)
peptide: NRLLTG
notes: as for B2

What was measured:
[1] = molecular target: B3; assay: SPR; conditions: both partners purified
Escherichia coli DnaK [2] = molecular target: T1, Escherichia coli DnaK (Escherichia coli, UniProt P0A6Y8 1-638); assay: SPR; MP-SPR; Hsp70 immobilised, peptide as analyte at 0-2000 nM, 100 µL/min; with 5 mM ATP (hydrolysable); conditions: both partners purified
T1 construct: E. coli Hsp70 (DnaK); expressed from pQE30/DnaK; also called E. coli Hsp70

Escherichia coli DnaK [3] = molecular target: T1, Escherichia coli DnaK; assay: SPR; MP-SPR; Hsp70 immobilised, peptide as analyte at 0-2000 nM, 100 µL/min; with 5 mM ADP; conditions: both partners purified
[4] = molecular target: the molecule itself; assay: SPR; MP-SPR (BioNavis); Hsp70 immobilised on a CMD3D 500L chip, the same Hsp70 as analyte at 0-2000 nM; no nucleotide; self-association, step not told; global fit
[5] = molecular target: the molecule itself; assay: SPR; MP-SPR (BioNavis); Hsp70 immobilised on a CMD3D 500L chip, the same Hsp70 as analyte at 0-2000 nM; with 5 mM ATP; self-association, step not told; global fit
[6] = molecular target: the molecule itself; assay: SPR; MP-SPR (BioNavis); Hsp70 immobilised on a CMD3D 500L chip, the same Hsp70 as analyte at 0-2000 nM; with 5 mM ADP; self-association, step not told; global fit
Escherichia coli DnaK [7] = molecular target: T1, Escherichia coli DnaK; assay: SPR; conditions: both partners purified
[8] = molecular target: B3; assay: SPR; MP-SPR (BioNavis); Hsp70 immobilised (1.0 μg/mL), PfHsp40 as analyte at 0-2000 nM; no nucleotide; global fit; conditions: both partners purified
[9] = molecular target: B3; assay: SPR; MP-SPR (BioNavis); Hsp70 immobilised (1.0 μg/mL), PfHsp40 as analyte at 0-2000 nM; with 5 mM ADP; global fit; conditions: both partners purified
[10] = molecular target: B3; assay: SPR; MP-SPR (BioNavis); Hsp70 immobilised (1.0 μg/mL), PfHsp40 as analyte at 0-2000 nM; with 5 mM ATP; global fit; conditions: both partners purified

## GFRNNNMYRF (source: synthetic peptide) [peptide GFRNNNMYRF]
[1]
  binding result: binds
Escherichia coli DnaK [2]
  binding result: binds

## B1
Escherichia coli DnaK [3]
  binding result: binds
[1]
  binding result: binds

## B2
[1]
  binding result: binds
Escherichia coli DnaK [2]
  binding result: binds

## B3
[4]
  Kd: 2390 nM
  kon: 8510 M⁻¹ s⁻¹
[5]
  Kd: 528 nM
  kon: 21400 M⁻¹ s⁻¹
[6]
  Kd: 1710 nM
  kon: 100 M⁻¹ s⁻¹

## B4
Escherichia coli DnaK [7]
  kon: 122 M⁻¹ s⁻¹ and 116 M⁻¹ s⁻¹ and 112 M⁻¹ s⁻¹
[8]
  Kd: 18800 nM
  kon: 1330 M⁻¹ s⁻¹
[9]
  Kd: 9980 nM
  kon: 1530 M⁻¹ s⁻¹
[10]
  Kd: 208 nM
  kon: 181 M⁻¹ s⁻¹

## B5
Escherichia coli DnaK [3]
  binding result: binds
[1]
  binding result: binds

## B6
Escherichia coli DnaK [3]
  binding result: binds
[1]
  binding result: binds

## ANNNMYRR (source: synthetic peptide) [peptide ANNNMYRR]
[1]
  binding result: binds
Escherichia coli DnaK [2]
  binding result: binds
